From publication PMC11352979, “The mycobacterium lipid transporter MmpL3 is dimeric in detergent solution, SMALPs and reconstituted nanodiscs†” (RSC Chemical Biology, 2024)

Assays:
[1] = molecular target: T1, C-terminally truncated Mycobacterium smegmatis MmpL3 (ΔC Ms-MmpL3, aa 1–773) (M. smegmatis), A0QP27; test: AUC; sedimentation velocity of the SEC peaks of protein in SMALPs; 0.1-0.5 mg/mL, 20 mM Tris HCl, 150 mM NaCl, pH 8.0, 20 °C; c(s) distribution; the mass includes lipid and polymer; conditions: remark: other sources report otherwise
T1 chain: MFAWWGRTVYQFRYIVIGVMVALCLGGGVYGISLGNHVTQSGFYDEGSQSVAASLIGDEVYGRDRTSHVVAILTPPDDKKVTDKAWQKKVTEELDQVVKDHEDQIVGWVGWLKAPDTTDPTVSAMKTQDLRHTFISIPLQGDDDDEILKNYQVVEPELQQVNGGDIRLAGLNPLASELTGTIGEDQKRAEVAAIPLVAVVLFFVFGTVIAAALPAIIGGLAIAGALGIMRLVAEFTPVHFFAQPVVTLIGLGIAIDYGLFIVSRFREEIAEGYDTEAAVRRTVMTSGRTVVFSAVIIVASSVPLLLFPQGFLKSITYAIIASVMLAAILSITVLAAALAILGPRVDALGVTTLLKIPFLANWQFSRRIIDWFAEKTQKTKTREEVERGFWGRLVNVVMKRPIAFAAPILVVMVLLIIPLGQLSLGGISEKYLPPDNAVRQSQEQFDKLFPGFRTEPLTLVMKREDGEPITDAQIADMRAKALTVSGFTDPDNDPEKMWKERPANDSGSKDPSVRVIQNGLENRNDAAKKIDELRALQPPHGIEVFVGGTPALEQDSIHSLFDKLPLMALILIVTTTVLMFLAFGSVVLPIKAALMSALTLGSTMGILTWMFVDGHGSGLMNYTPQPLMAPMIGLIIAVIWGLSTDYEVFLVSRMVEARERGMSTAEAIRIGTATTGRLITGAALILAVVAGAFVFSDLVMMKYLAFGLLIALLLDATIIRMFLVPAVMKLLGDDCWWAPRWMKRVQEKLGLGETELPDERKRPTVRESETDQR

[2] = molecular target: T1, C-terminally truncated Mycobacterium …; test: native MS; LILBID-MS of the high sucrose percentage (HSP, 16-18% sucrose) fraction of POPC/MSP1E3D1 nanodiscs; 20 mM Tris HCl pH 8.0; negative mode; low and high laser energies; conditions: remark: other sources report otherwise

stoichiometry N [1]: 2
stoichiometry N [2]: 2
B1: C-terminally truncated Mycobacterium smegmatis MmpL3 (ΔC Ms-MmpL3, aa 1–773), A0QP27 1-773 (domain or fragment)
chain: T1 chain
